{"source": "patent US9907791B2", "about": "“Ron inhibitors for use in preventing and treating bone loss” (UNIVERSITY OF UTAH RESEARCH FOUNDATION, priority 2014, dated 2018)", "key": {"c-Src": {"tested_on": "c-Src", "test": "Western blot of osteoclast lysates, phospho-Src", "assay_type": "cell-based, mice", "description": "Cells were serum starved (0.5% FBS) for 3 hours prior to lysate collection. Inhibitors were added 1 hour prior to lysis and MSP was added 15 min prior to lysis when indicated. Cells were washed with 1×PBS and harvested in lysis buffer (25 mM Tris-HCl, pH 7.5, 0.42 M NaCl, 1.5 mM MgCl2, 0.5 mM EDTA, 1 mM DTT, 25% sucrose, and 0.1% Triton X-100) plus 100× protease arrest (Bioscience, Bozeman, Mont.) and 100× orthovanadate. Primary antibodies used for immunoblotting include: anti-MSP (Santa Cruz, sc-6090, Dallas, Tex.) at a 1:250 dilution, anti-pan Akt (Cell Signaling, #4691S, Beverly, Mass.) at a 1:1000 dilution, anti-pan Erk (Cell Signaling, #4695, Beverly, Mass.) at a 1:1000 dilution, anti-phospho Akt (Cell Signaling, #9271 L, Beverly, Mass.) at a 1:500 dilution, anti-phospho Erk (Cell Signaling, #4370S, Beverly, Mass.) at a 1:500 dilution, anti-Src (Cell Signaling, #2110, Beverly, Mass.) at a 1:500 dilution, and anti-phospho Src (Y416) (Cell Signaling, #2113, Beverly, Mass.) at a 1:500 dilution. The secondary antibodies used were HRP-conjugated anti-goat IgG (Santa Cruz, Dallas, Tex.) and anti-rabbit IgG (Santa Cruz, Dallas, Tex.). Chemiluminescent signals were detected using Immun-Star HRP (BioRad, Hercules, Calif.)."}, "PyMT control tumor cells": {"tested_on": "PyMT control tumor cells", "test": "Intratibial PyMT control tumor-induced osteolysis", "assay_type": "in vivo, mice", "source_text": "(§1) All procedures involving mice and experimental protocols were approved by the Institutional Animal Care and Use Committee (IACUC) of the University of Utah. The RonTK−/− mice which reside on the FVB background, were crossed with NOD.SCID mice for an immune-compromised mouse model. As a control, wild-type FVB mice were also crossed with NOD.SCID mice. The STK−/− mice, which are on a C57BL/6 background, were compared to wild-type C57BL/6 mice as controls. Mice for all experiments were 6 to 8 weeks of age. For intratibial injections, 1×10^5 (PyMTor DU4475) or 3×10^5 (MDA-MB-231) tumor cells were resuspended in 10 μL matrigel and injected into the right tibia of anesthetized female FVB (PyMT) or NOD.SCID mice carrying various alleles of RON. Osteolysis was assessed by X-ray radiography. Dissected hindlimbs from mice sacrificed at the final time point in each experiment were placed in the Kodak In-vivo Multispectral Imaging System FX and exposed to X-ray radiography at 35 kV for 100 sec. Excess tumor tissue was removed from the bones prior to X-ray. Osteolytic lesions were quantified using Image J software (NCBI). All images were compared to the contralateral leg as an internal control.\n(§2) For in vivo experiments, the OSI-296 inhibitor was dissolved in 40% Trappsol with 0.01 M HCl, and mice were treated at a concentration of 200 mg/kg daily by oral gavage. […]"}, "PyMT-MSP tumor cells": {"tested_on": "PyMT-MSP tumor cells", "test": "Intratibial PyMT-MSP tumor-induced osteolysis", "assay_type": "in vivo, mice", "source_text": "as §1\nHindlimb bones were excised from mice at the time of sacrifice and bones were fixed in 10% neutral-buffered formalin, decalcified in Formical-2000 (Decal Corporation, Tallman, N.Y.) for 8 days and embedded in paraffin for hematoxylin and eosin (H & E) or immunohistochemical staining. Osteoclast number was assessed as TRAP^+ multinucleated cells containing 4 or more nuclei and reported as TRAP^+ cells per field. Three sections per mouse and 5 fields per section were used for quantification with fields representing the entire length of the tibia. Tumor proliferation rate was reported as the number of cells which were positive for phospho-H3 staining compared to the number of unstained cells per field expressed as a percent. Three sections per mouse and 5 fields per section were used for quantification with analysis being restricted to within the bone marrow cavity. […]"}, "[1]": {"tested_on": "MDA-MB-231 control tumor cells", "test": "Intratibial MDA-MB-231 control tumor-induced osteolysis", "assay_type": "in vivo, NOD.SCID mice", "details": "treated 3 days post tumor cell injection, sacrificed 30 days", "source_text": "as §1, §2"}}}
{"molecule": "muRANK-Fc: murine RANKL antagonist (Amgen) (protein, left off: a dimerising Fc or GST) VTPPCTQERHYEHLGRCCSRCEPGKYLSSKCTPTSDSVCLPCGPDEYLDTWNEEDKCLLHKVCDAGKALVAVDPGNHTAPRRCACTAGYHWNSDCECCRRNTECAPGFGAQHPLQLNKDTVCTPCLLGFFSDVFSSTDKCKPWTNCTLLGKLEAHQGTTESDVVCSSSMTLRRPPKEAQAYLPS", "values": [{"measurement": "phosphorylated c-Src in WT osteoclasts", "setting": "c-Src", "result": "decrease in phosphorylated c-Src"}, {"measurement": "osteolysis from PyMT control tumors (no MSP)", "setting": "PyMT control tumor cells; WT mice, treatment began 3 days post injection, sacrificed 42 days post injection", "result": "significantly impaired"}, {"measurement": "tumor growth of PyMT control bone lesions", "setting": "PyMT control tumor cells; caliper measurements", "result": "no significant effect on tumor growth"}, {"measurement": "MSP-driven osteolysis in Ron TK−/− mice", "setting": "PyMT-MSP tumor cells; Ron TK−/− mice, treatment began 3 days post tumor cell injection", "result": "did not reduce this further"}, {"measurement": "TRAP+ osteoclasts in tumor-bearing bones", "setting": "PyMT-MSP tumor cells; TRAP staining of bone sections", "result": "lack of TRAP+ cells"}, {"measurement": "osteolysis from PyMT-MSP tumors", "setting": "PyMT-MSP tumor cells; WT mice, treatment began 3 days post tumor cell injection", "result": "significant osteolysis even in the presence of the RANKL antagonist"}, {"measurement": "osteolysis from control MDA-MB-231 tumor cells", "setting": "[1]", "result": "reduced osteolysis"}]}
